Ends that are not written are not given here.
Tests used:
[1] = target: T1, fibrin in human plasma clots (Homo sapiens, UniProt P02671+P02675+P02679); experiment: In vitro MRI of plasma clots at 100 μM (Example 14)
T1 construct: tissue Dade Behring Control Plasma N; host or cells: clots formed in vitro from pooled human plasma with Pathromtin SL and CaCl2
T1 sequence (P02671 36-629 limits assumed): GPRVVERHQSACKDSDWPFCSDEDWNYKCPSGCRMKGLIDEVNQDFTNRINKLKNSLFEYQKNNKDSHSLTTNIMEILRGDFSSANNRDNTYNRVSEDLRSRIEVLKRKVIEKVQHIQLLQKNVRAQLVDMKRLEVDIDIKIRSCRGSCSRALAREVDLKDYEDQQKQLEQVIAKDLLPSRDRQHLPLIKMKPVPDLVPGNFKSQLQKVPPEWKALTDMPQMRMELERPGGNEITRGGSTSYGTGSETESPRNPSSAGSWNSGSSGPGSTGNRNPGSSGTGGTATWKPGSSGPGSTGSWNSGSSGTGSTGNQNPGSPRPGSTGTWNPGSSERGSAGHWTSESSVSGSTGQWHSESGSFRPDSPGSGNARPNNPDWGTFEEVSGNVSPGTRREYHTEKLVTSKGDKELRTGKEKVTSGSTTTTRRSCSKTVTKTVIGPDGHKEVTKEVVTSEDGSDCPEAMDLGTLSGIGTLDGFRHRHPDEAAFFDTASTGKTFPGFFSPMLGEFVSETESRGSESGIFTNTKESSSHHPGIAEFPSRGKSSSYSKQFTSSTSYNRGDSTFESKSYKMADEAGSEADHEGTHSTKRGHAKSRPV
T1 sequence (P02675 45-491 limits assumed): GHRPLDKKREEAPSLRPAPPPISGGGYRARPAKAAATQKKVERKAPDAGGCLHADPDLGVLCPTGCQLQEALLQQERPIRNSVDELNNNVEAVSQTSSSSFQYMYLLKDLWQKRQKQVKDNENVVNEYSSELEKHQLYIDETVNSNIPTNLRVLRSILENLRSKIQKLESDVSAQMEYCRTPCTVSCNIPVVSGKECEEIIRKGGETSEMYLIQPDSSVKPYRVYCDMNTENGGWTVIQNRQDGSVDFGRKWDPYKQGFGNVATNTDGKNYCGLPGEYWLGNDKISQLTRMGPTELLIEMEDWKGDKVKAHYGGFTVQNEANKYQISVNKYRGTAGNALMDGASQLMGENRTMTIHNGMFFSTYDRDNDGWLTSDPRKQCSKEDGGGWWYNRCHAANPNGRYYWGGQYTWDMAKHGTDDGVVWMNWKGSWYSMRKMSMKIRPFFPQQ
T1 sequence (P02679 27-437 isoform P02679-2 limits assumed): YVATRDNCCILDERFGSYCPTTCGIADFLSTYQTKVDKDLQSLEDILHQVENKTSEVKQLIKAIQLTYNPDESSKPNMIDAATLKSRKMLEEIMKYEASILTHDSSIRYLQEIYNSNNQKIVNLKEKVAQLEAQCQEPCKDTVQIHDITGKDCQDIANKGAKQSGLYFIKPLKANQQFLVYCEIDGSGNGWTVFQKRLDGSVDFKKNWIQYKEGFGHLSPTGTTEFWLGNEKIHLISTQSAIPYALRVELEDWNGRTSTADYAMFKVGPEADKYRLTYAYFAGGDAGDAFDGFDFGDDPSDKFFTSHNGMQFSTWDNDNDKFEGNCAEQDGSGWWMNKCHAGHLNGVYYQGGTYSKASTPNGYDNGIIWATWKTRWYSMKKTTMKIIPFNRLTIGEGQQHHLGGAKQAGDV
Experimental: Small plasma clots from different species (human, guinea pig and mouse) were formed by combining citrate plasma (1:3,v/v) phospholipids (Reagent Pathromtin) and CaCl2 0.008 M (Dade Behring, Germany) into small 2 ml vials at 37° C. Clots were washed 3 times with TBS 1× and incubated with contrast agents at a concentration of 100 μM of complex, for 30 minutes at 37° C. Two clots were prepared for each solution of incubation. After the incubation clots were washed 4 times with TBS 1× and placed into small vials filled with TBS 1× for MRI analysis. […] Maximum signal intensity of each clot was measured in recovered MR images and compared to the signal from clots incubated with TBS. […]
(§1) High resolution MRI was then performed at 2 Tesla by using T1-weighted Spin-Echo (SE) sequences. T1 maps were also calculated from the acquisitions of 2D gradient echo images or inversion recovery spin echo images.
(§2) The maximum signal intensity was measured within a region of interest (ROI) including a clot, drawn by an operator on each MR image using a dedicated software (MR Research Systems Ltd, Surrey UK). Max signal intensity enhancement (Enh %) was determined as: Enh %=100*(SIx−SI0)/SI0 where SI0 and SIx are the signal intensity of clots incubated without and with test compounds, respectively.

fibrin in human clots = target: T2, fibrin in human clots (Homo sapiens, UniProt P02671+P02675+P02679); experiment: In vitro MRI of human clots at different incubation concentrations (Example 15)
T2 construct: tissue Dade Behring Control Plasma N; host or cells: clots formed in vitro from pooled human plasma with Pathromtin SL and CaCl2
T2 sequence (P02671 36-629 limits assumed): T1 sequence (P02671 36-629 limits assumed)
T2 sequence (P02675 45-491 limits assumed): T1 sequence (P02675 45-491 limits assumed)
T2 sequence (P02679 27-437 isoform P02679-2 limits assumed): T1 sequence (P02679 27-437 isoform P02679-2 limits assumed)
Experimental: By following the above procedure, a second wider group of chelate compounds of the invention including, for instance, Chelate Complexes from 1 to 7 and the Reference Compounds from 1 to 6 were tested on human clots at different incubation concentration (25 to 400 μM of complex). Signal enhancement (%) was then determined for each clots by MR Imaging at 2T and corresponding Gd content in clots was measured by ICP.
By comparing the signal enhancement in clots, for instance at incubation concentration of 100 μM of peptide, tested compounds could be classified in term of performance as follows (Max signal enhancement was normalized to the chelate complex 4): […]
as §1, §2

Chelate Complex 1: Gd chelate (four DTPA-Glu) conjugated via linker to fibrin-binding peptide SEQ ID NO:001 (WQPCPAESWTFCWDPGGGK; cysteine pairing not given here; also: Gd chelate (four DTPA-Glu) conjugated via linker, site not given here, metal complex: Gd)
Signal enhancement in clots, comparison in words ([1]; 100 μM of complex): provides the maximum signal enhancement | Max signal Enhancement at 100 μM ([1]; clots incubated with 100 μM of complex, 30 min, 37°C, T1-weighted MRI at 2T, normalized to chelate complex 1): 100% | Max signal Enhancement (%) at 100 μM (fibrin in human clots; human clots, incubation 100 μM of peptide, MRI at 2T, normalized to chelate complex 4): 93.2% | Signal enhancement in clots, comparison in words (fibrin in human clots; incubation concentration 100 μM): best results
